Measured values: patent US20240189443A1, “PD-L1 AND TLR7 DOUBLE-TARGETING NANOBODY COUPLING DRUG AND USE THEREOF IN ANTI-TUMOR” (SHANGHAI INSTITUTE OF MATERIA MEDICA, CHINESE ACADEMY OF …, priority 2021, published 2024)
Numbering of substitutions follows the chain as printed.

B1: anti-human PD-L1 nanobody h_Nb2 (Fc fusion)
chain: DVQLQESGGGLVQPGGSLRLSCAASGFTFGDRWMYWLRQAPGKGLEWVSSINPAGRSTYYADSVKGRFTISRDNAKNTLYLQMNSLKSEDTAVYYCTKDPGGYQKGQGTQVTVSS
notes: not shown: Fc of human IgG1 from vector pFUSE-hIgG1-Fc
B2: anti-human PD-L1 nanobody h_Nb12 (Fc fusion)
chain: DVQLQESGGGLVQAGGSLRLSCAASGRTFSSRAMGWFRQAPGKEREFVAAISGSGRNTYYADSVKGRFTISRDNAKNSVNLQMNSLKPEDTAVYYCNAAGGGITIATMTQRTQYDYWGQGTQVTVSS
notes: as for B1
B3: anti-human PD-L1 nanobody h_Nb13 (Fc fusion)
chain: DVQLQESGGGLVQPGGSLRLSCAASGSIFSINAMGWYRQAPGKSRELVAAITSGGSTNYADSVKGRFTISRDTAKNTVYLLMNSLEPEDTAVYYCNVERRRPPHYLSEYDFDWGQGTQVTVSS
notes: as for B1
B4: anti-human PD-L1 nanobody h_Nb26 (Fc fusion)
chain: B3 chain with S25P, S30R, S44Q, K64Q, T73N, L81Q, E86K, L106Y, E108D
notes: as for B1
B5: anti-human PD-L1 nanobody h_Nb5 (Fc fusion)
chain: DVQLQESGGGAVQSGESLRLSCAASGRDLMFYDVAWFRQAPGKEREGVSYIRSSGTLTKYADSVKGRFTISRDNDKNTVSLQMNSLNPEDTAKYYCAARLQSATSHSDLREDEFNSWGQGTQVTVSS
notes: as for B1
B6: anti-human PD-L1 nanobody h_Nb6 (Fc fusion)
chain: DVQLQESGGGLAQPGGSLRLSCAASGFTFSSYAMSWARQAPGKGLEWVAGIYRGGSDTYYADSVKGRFTISRDNTKNTLYLQMNSLKPEDTALYYCIQGWGLGYANYDYWGQGTQVTVSS
notes: as for B1
B7: anti-human PD-L1 nanobody h_Nb9 (Fc fusion)
chain: DVQLQESGGGLVQPGGSLRLSCASSGSIFGLGVKGWYRQPPGNQREMVAQIISGGRISYADSVKGRFTISRDNAKNTVYLQMNSLKPEDTAVYYCNAWGPGQRNYWGRGTQVTVSS
notes: as for B1
B8: anti-human PD-L1 nanobody h_Nb1 (Fc fusion)
chain: DVQLQESGGGLVQPGGSLRLSCAASGFTFSSYAMSWVRQAPGKGLEWVSDINSGGDNTDYADSVKGRFTISRDNAKNTLYLQMNSLKPEDTAVYYCARGPKLCFSSWGQGTQVTVSS
notes: Cloned into pFUSE-mIgG2b-Fc and pFUSE-hIgG1-Fc; not shown: Fc of human IgG1 from vector pFUSE-hIgG1-Fc
B9: anti-human PD-L1 nanobody h_Nb4 (Fc fusion)
chain: DVQLQESGGGLVQAGGSLRLSCAAPSRMFSGYTMGWYRQAPGKQRELVAQIANGGFTDYIDSVKGRFSISRDTVLNMMYLQMNSLKPEDTAVYYCNLVLVNGIPTRNWGQGTQVTVSS
notes: as for B1
B10: h_Nb2_G30R (VHH)
VHH: B1 chain with G30R
notes: also called 107
B11: h_Nb2_G30F (VHH)
VHH: B1 chain with G30F
notes: also called 108
B12: h_Nb2_P100E (VHH)
VHH: B1 chain with P100E
B13: h_Nb2_G101R (VHH)
VHH: B1 chain with G101R
notes: also called 110
B14: h_Nb2_F29R (VHH)
VHH: B1 chain with F29R
notes: also called 113
B15: h_Nb2_F29W (VHH)
VHH: B1 chain with F29W
notes: also called 114
B16: h_Nb2_P100R (VHH)
VHH: B1 chain with P100R
notes: also called 115
B17: h_Nb2_P100Q (VHH)
VHH: B1 chain with P100Q
notes: also called 116
B18: h_Nb2_G101W (VHH)
VHH: B1 chain with G101W
notes: also called 111
B19: h_Nb2_G30W (VHH)
VHH: B1 chain with G30W
notes: also called 109
B20: h_Nb1_G99R (VHH)
VHH: B8 chain with G99R
notes: also called 103
B21: h_Nb1_C103W (VHH)
VHH: B8 chain with C103W
B22: h_Nb1_D59R (VHH)
VHH: B8 chain with D59R
notes: also called 95
B23: h_Nb1_D59M (VHH)
VHH: B8 chain with D59M
notes: also called 96
B24: h_Nb1_D62Y (VHH)
VHH: B8 chain with D62Y
notes: also called 99
B25: h_Nb1_G99Y (VHH)
VHH: B8 chain with G99Y
notes: also called 106
B26: h_Nb1_D59F (VHH)
VHH: B8 chain with D59F
notes: also called 97
B27: h_Nb1_A61N (VHH)
VHH: B8 chain with A61N
notes: also called 92
B28: h_Nb1_D62W (VHH)
VHH: B8 chain with D62W
notes: also called 98
B29: h_Nb1_A61K (VHH)
VHH: B8 chain with A61K
notes: also called 94
B30: h_Nb1_C103K (VHH)
VHH: B8 chain with C103K
notes: also called 100
B31: h_Nb1_A61Q (VHH)
VHH: B8 chain with A61Q
notes: also called 93
B32: h_Nb1_C103M (VHH)
VHH: B8 chain with C103M
B33: h_Nb1_G99Q (VHH)
VHH: B8 chain with G99Q
notes: also called 104
B34: h_Nb1_G99W (VHH)
VHH: B8 chain with G99W
notes: also called 105
B35: h_Nb5: anti-human PD-L1 nanobody, VHH SEQ ID NO: 33 (protein)
VHH: B5 chain
modifications: h_Nb5 Amino acid sequence of VHH
B36: h_Nb6: anti-human PD-L1 nanobody, VHH SEQ ID NO: 37 (protein)
VHH: B6 chain
modifications: h_Nb6 Amino acid sequence of VHH
B37: h_Nb4: anti-human PD-L1 nanobody, VHH SEQ ID NO: 29 (protein)
VHH: B9 chain
modifications: h_Nb4 Amino acid sequence of VHH

Target: T1, human PD-L1 on cell strain HEK293T/hPD-L1 (human, UniProt Q9NZQ7 19-290)
T1 construct: whole, on cells
T1 sequence (Q9NZQ7 19-290): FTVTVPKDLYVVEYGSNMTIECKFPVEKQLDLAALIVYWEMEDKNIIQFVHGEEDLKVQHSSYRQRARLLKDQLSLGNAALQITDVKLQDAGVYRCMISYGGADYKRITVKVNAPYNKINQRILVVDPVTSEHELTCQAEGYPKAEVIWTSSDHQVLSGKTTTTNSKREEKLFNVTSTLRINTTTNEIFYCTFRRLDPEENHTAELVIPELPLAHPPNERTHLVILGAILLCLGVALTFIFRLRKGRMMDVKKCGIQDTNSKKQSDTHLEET
Assay: flow cytometry on HEK293T/hPD-L1, 10 µg/mL, anti-human IgG Fc (FITC)
Conditions: not given
Procedure: (§1) The cell strain HEK293T/hPD-L1 was digested, and centrifugationwas performed to remove the supernatant; the cells were washed one time with PBS and the cell density was adjusted to 2.5×10⁶ cells/mL; each cell sample was added to a 100 μL cell suspension, that is, a 2.5×10⁵ cell/sample was comprised; different anti-human PD-L1 candidate nanobodies (the concentration is 10 μg/mL) were respectively added to the samples; incubating for 20 min at 4° C.; centrifuging, removing supernatant, and the cells were washing once with PBS; using diluted antibody anti-human IgG Fc (FITC) as secondary antibody, and the cells were re-suspended; incubating at 4° C. for 20 min; centrifuging, removing supernatant, the cells were washing twice with PBS, and transferred to a flow tube; and was performed on-machine detection by using a flow cytometer to obtain the binding activity of the candidate nanobody and human PD-L1, as shown in FIG. 13.

Row | binding result | Molecule
1 | binds | B1
2 | binds | B2
3 | binds | B3
4 | binds | B4
5 | binds | B5
6 | binds | B6
7 | binds | B7
8 | binds | B8
9 | binds | B9

Target: T2, PD-L1 (human PD-L1 protein of the ELISA of Example 16) (human, UniProt Q9NZQ7 19-238, limits assumed)
T2 sequence (Q9NZQ7 19-238 limits assumed): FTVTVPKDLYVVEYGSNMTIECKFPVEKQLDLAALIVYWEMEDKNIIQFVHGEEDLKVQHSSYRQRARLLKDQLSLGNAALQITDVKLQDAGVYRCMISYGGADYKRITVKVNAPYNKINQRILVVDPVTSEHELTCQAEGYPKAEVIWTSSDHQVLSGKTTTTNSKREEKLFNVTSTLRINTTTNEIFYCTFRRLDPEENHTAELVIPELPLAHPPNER
Assay: ELISA; affinity relative to original antibody h_Nb2 VHH (SEQ ID NO.25)
Conditions: not given

Row | Increased relative affinity | Molecule
10 | 6.23 relative | B10
11 | 5.11 relative | B11
12 | 3.98 relative | B12
13 | 6.5 relative | B13
14 | 1.46 relative | B14
15 | 1.44 relative | B15
16 | 7.21 relative | B16
17 | 3.41 relative | B17
18 | 5.92 relative | B18
19 | 10 relative | B19

Target: T2, PD-L1 (human PD-L1 protein of the ELISA …)
Assay: ELISA; affinity relative to original antibody h_Nb1 VHH (SEQ ID NO.21)
Conditions: not given

Row | Increased relative affinity | Molecule
20 | 12.1 relative | B20
21 | 3.83 relative | B21
22 | 4.28 relative | B22
23 | 4.9 relative | B23
24 | 5.8 relative | B24
25 | 7.02 relative | B25
26 | 5.12 relative | B26
27 | 5.13 relative | B27
28 | 11.7 relative | B28
29 | 4.12 relative | B29
30 | 3.31 relative | B30
31 | 4.66 relative | B31
32 | 3.38 relative | B32
33 | 6.16 relative | B33
34 | 6.16 relative | B34

Target: T3, HEK293T/hPD-L1 (Homo sapiens, UniProt Q9NZQ7)
T3 construct: expressed in transfected cells; host or cells: HEK293T
T3 sequence (Q9NZQ7 19-290): as the sequence (Q9NZQ7 19-290) above
Assay: Human PD-L1 binding activity assay of candidate anti-human PD-L1 nanobodies (flow cytometry)
Conditions: nanobody 10 μg/mL
Procedure: as §1, with “2.5×10^6” for “2.5×10⁶”, “2.5×10^5” for “2.5×10⁵”

Row | Binding activity with human PD-L1 | Molecule
35 | good binding activity | B35
36 | good binding activity | B36
37 | good binding activity | B37
